# Laboratory results from patent publication US20250333497A1, “ACTIVATING ANTIBODIES OF RECEPTOR PROTEINS PLXDC1 AND PLXDC2” (THE REGENTS OF THE UNIVERSITY OF CALIFORNIA, priority 2022, published 2025).
# T1: full length PLXDC1 (PLXDC1-Full) (Homo sapiens, UniProt Q8IUK5)
# T1 construct: expressed in transfected cells
# T1 sequence (Q8IUK5 19-500): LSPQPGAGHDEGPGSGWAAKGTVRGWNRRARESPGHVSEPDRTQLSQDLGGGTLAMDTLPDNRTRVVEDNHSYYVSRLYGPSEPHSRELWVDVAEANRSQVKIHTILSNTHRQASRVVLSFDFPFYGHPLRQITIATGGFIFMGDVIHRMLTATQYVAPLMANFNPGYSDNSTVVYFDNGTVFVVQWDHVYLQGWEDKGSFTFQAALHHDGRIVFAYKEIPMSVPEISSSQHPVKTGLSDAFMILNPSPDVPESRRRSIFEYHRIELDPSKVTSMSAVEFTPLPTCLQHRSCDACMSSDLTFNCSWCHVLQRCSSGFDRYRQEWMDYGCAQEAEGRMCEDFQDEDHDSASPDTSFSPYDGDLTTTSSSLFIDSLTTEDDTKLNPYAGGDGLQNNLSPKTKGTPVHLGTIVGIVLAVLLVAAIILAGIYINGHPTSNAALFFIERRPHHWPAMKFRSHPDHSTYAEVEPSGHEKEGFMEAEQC
# Legend:
# [1] = system: human lung tumor endothelial cells expressing PLXDC1; experiment: Ex vivo tumor angiogenesis model: killing of tumor endothelial cells; assay type: cell-based; conditions: signal day 1 vs day 8, 500 nM printed for 3-G7
# Experimental: The following protocol describes the Ex Vivo Tumor Angiogenesis Model.
# 1. The day before the experiment, all necessary tools were sprayed with 70% ethanol and sterilized under UV light overnight, including blade, dissecting and micro-dissecting scissors and […]. 24-well dishes were placed at 4° C. to pre-chill plates and Matrigel was thawed, 24 hours before tumor dissection.
# 2. 70% ethanol was sprayed on working bench. Two sterile petri dishes were prepared with 10 ml sterile PBS. The following steps 3 and 4 are necessary for mouse tumor models. For fresh human tumor, steps 3 and 4 are skipped.
# 3. The tumor-bearing mice were euthanized. 70% ethanol was sprayed on the mouse and the tumor was removed using sterilized dissecting tools (avoid the fur). The tumor was rinsed in petri dish with sterile PBS to remove ethanol and fur. The tumor was transferred to a new petri dish with PBS for dissection. The dish is placed on ice.
# 4. […]
# 9. When the assay was ready to be analyzed for cell death (e.g., 48 hours after drug addition), the dye mixture was prepared by mixing 6 μl of green dye to stain live cells (5 mg/ml Fluorescein diacetate or FDA in DMSO) with 30 μl of red dye (2.5 mg/ml Propidium iodide or PI in PBS) to stain dead cells in an Eppendorf tube. […]
# 14. Taking pictures in the red and green channels would allow not only the recording of the results but also more accurate quantitation of the results. […]
# PLXDC1 [2] = experiment: Promotor activity in PLXDC1-expressing cells (activation of PLXDC signaling); assay type: cell-based
# From the text: This example tested some of the identified antibodies for their activity in activating PLXDC signaling.
# [3] = molecular target: T1, full length PLXDC1 (PLXDC1-Full); experiment: Domain A binding specificity: binding to full length PLXDC1 expressed in transfected cells
# From the text: (§1) The specific binding to Domain A of a PLXDC protein can be tested with a method described herein. In some embodiments, the method employs a PLXDC with the Domain A deleted. […] An example is Compound 369 as described above.
# (§2) The Domain A-binding antibodies are 3-C11, 4-A8, 5-E2, 2-H2, 3-G6, 3-G7, 8-A7, 8-A9, 8-C9 and 8-D9.
# (§3) Both full length PLXDC1 and Domain A deleted PLXDC1 (PLXDC1-dA) have an epitope tag on the N-terminus.
# [4] = molecular target: T2, Domain A-deleted PLXDC1 (PLXDC1-dA) (Homo sapiens, UniProt Q8IUK5); experiment: Domain A binding specificity: binding to Domain A-deleted PLXDC1 expressed in transfected cells
# T2 construct: expressed in transfected cells
# From the text: as §1, §2, §3
# PLXDC1 [5] = experiment: Antibody binding to PLXDC1 with and without small molecule agonist compound 369 (FIG. 5)
# [6] = antibodies of Table 3 tested for ability to bind Domain A
# [7] = transfected into a cell line that does not express PLXDC1, FIG. 3-4
molecule,measurement,setting,value
"A006: VH SEQ ID NO:72, VL SEQ ID NO:73; Domain A-binding PLXDC1-activating antibody (antibody, V domains shown) VH: QVQLVQSGAEVKKPGSSVKVSCKASGGTFSTEYISWVRQAPGQGLEWMGRIIPVLGITNYAQKFQGRVTITADESTSTAYMELSSLRSEDTAVYYCARHLGPPYLVTYSHGFDVWGQGTLVTVSS VL: EIVMTQSPATLSVSPGERATLSCRASQSLGTNLAWYQQKPGQAPRLLIYGASTRATGIPARFSGSGSGTEFTLTISSLQSEDFAVYYCQQYYEAPPTFGQGTKVEIK",death of tumor endothelial cells expressing PLXDC1,[1],led to the death of tumor endothelial cells expressing PLXDC1
same,promotor activity in PLXDC1-expressing cells,PLXDC1 [2]; PLXDC1-expressing cells,activated the promotor activity
same,promotor activity in cells without PLXDC1,PLXDC1 [2]; cells without PLXDC1,not in cells without PLXDC1
same,binding to PLXDC1,[3]; [6],able to bind PLXDC1
same,binding to full length PLXDC1 (PLXDC1-Full),[3]; [7],only bound to full length PLXDC1
same,binding to PLXDC1 mutant with Domain A deleted,[4]; [6],not the mutant with Domain A deleted
same,binding to Domain A-deleted PLXDC1 (PLXDC1-dA),[4]; [7],did not bind to Domain A-deleted PLXDC1
same,affinity to PLXDC1 when compound 369 was added,"PLXDC1 [5]; small molecule agonist compound 369 present, FIG. 5 upper curve",greatly higher affinity
same,affinity to standalone PLXDC1,"PLXDC1 [5]; without compound 369, FIG. 5 lower curve",low nM affinity
